Results taken from paper PMC12106674.

Assays:
[1] = target: recombinant biotinylated human FcRn (Immunitrack) (human) (UniProt P55899)
[2] = target: recombinant biotinylated human FcRn (Immunitrack) (human) (UniProt P55899); remark: listed apart in the source
[3] = target: recombinant biotinylated human FcRn (Immunitrack) (human) (UniProt P55899); experiment: SPR; biotinylated human FcRn (~100 RU) captured on an SA sensor chip; 2-fold serial dilutions of albumin variants or GLP-1 albumin fusions injected in duplicates; pH 5.5 PBS (177 mM phosphate, 85 mM NaCl, 0.05% Tween 20), 25 °C, 40 µL/min; 1:1 Langmuir model
[4] = target: human FcRn of the human FcRn Affinity Column (Roche) (human) (UniProt P55899); experiment: analytical FcRn affinity chromatography; human FcRn Affinity Column (Roche); albumin or GLP-1 albumin fusions (2 mg/mL) loaded at pH 5.5 and eluted by a pH gradient from 5.5 (20 mM MES/HCl, 140 mM NaCl) to 8.8 (20 mM Tris/HCl, 140 mM NaCl), 0.5 mL/min, 110 min, room temperature
[5] = target: human GLP-1 receptor (GLP-1R) on reporter cells (human) (UniProt P43220)
UniProt P43220, sequence (P43220 24-463): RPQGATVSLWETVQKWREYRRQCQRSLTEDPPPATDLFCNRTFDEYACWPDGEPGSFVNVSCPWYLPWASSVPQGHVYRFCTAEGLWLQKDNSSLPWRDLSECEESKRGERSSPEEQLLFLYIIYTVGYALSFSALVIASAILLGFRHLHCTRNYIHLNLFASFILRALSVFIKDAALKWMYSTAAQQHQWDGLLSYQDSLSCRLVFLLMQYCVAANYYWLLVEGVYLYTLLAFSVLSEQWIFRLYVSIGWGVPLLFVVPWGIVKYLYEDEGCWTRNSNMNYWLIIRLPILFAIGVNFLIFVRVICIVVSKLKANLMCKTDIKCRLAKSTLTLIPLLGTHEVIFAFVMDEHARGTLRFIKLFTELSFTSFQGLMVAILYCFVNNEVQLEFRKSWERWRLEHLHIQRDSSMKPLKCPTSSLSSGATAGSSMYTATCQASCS

[6] = target: recombinant biotinylated human FcRn (Immunitrack) (human) (UniProt P55899); remark: listed apart in the source

Substance | cellular recycling in HERA with HMEC-1-FcRn cells (800 nM), relative to GLP-1 WT [1] | plasma half-life after IV injection in homozygous human FcRn Tg32 mice (GLP-1 WT: 1.3 days) [2] | Kd [3] | koff [3] | kon [3] | elution pH [4] | EC50 of luciferase signal in human GLP-1R reporter cells (0.08–6250 nM, 23 h) [5] | plasma half-life after IV injection in hemizygous human FcRn Tg32 mice [6] | EC50 of luciferase signal in human GLP-1R reporter cells (0.00062–50 nM, 23 h) [5]
GLP-1 LX (GLP-1 albumin fusion with WT albumin lacking L585) | 2 fold less | 21.6 h | 515 nM | 0.0221 s⁻¹ | 43000 M⁻¹ s⁻¹ | 6.3 pH |  |  | 
GLP-1 QMP (GLP-1 albumin fusion with QMP-engineered albumin) | 4.5 fold | 64.8 h | < 0.03 nM | < 1e-05 s⁻¹ | 381000 M⁻¹ s⁻¹ | 7.8 pH | 44.4 nM |  | 
GLP-1 QMP/LX (GLP-1 albumin fusion with QMP-engineered albumin lacking L585) |  |  | 0.2 nM |  |  |  |  |  | 
GLP-1 WT (albiglutide-mimic; two GLP-1(7-36) A2G in tandem fused to the N-terminus of human WT albumin) (from UniProt P02768 25-609) |  |  | 114 nM |  |  | 6.7 pH | 50 nM |  | 
QMP variant recombinantly expressed without the L585 residue (QMP/LX) (natural protein) |  |  | 0.9 nM | 0.0001 s⁻¹ | 115000 M⁻¹ s⁻¹ |  |  | 103 h | 
QMP-engineered human albumin (E505Q, T527M, K573P), full-length (natural protein) |  |  | 0.3 nM | 4e-05 s⁻¹ | 144000 M⁻¹ s⁻¹ |  |  | 108 h | 
Tanzeum (albiglutide) (from UniProt P02768 25-609) |  |  | 76.1 nM |  |  | 6.9 pH |  |  | 
human albumin L585I (natural protein) |  |  | 604 nM | 0.0175 s⁻¹ | 29000 M⁻¹ s⁻¹ |  |  |  | 
human albumin L585M (natural protein) |  |  | 678 nM | 0.0197 s⁻¹ | 29000 M⁻¹ s⁻¹ |  |  |  | 
human albumin L585V (natural protein) |  |  | 684 nM | 0.0233 s⁻¹ | 34000 M⁻¹ s⁻¹ |  |  |  | 
unfused GLP-1(7–36) included in the reporter assay kit (peptide) |  |  |  |  |  |  |  |  | 0.28 nM
